Test system: Rap1 (Naumovozyma castellii)
Test: competition EMSA
Conditions: labeled N1 probe, 10 mM Tris-HCl pH 7.5, 7 mM MgCl2, 8% glycerol, 10 fmol probe in 15 µl, ~0.6 µg Rap1 extract, 1.5 µg non-specific competitor (E. coli DNA, salmon sperm DNA …); for binding signal: 400x competitor, scale: fold shifted probe remaining vs telomeric competitor

Sequence | binding signal | binding signal (fold shifted probe remaining (reference)) (unlabeled N1 as competitor)
AAGATTTGTATAGTCTGGGTAATGTATGTCAT (double strand) [ST-3] | 91 | –
AAGGATAGTTGGTCTGGGTGAGGATATTCTGTT (double strand) [ST-1] | 60 | –
GTCTGGGTGTCTGGGTGTC (double strand) [telomeric ds-probe (19 bp)] | – | 1
GTGTCGTTAGGTACGGAGGGTGTTGTTTGGAATATG (double strand) [ST-4] | 33 | –
TGTTGTTGATGGTGGTGTTGTTTTTTTGTC (double strand) [ST-2] | 66 | –
